Reference: US20210130436A1

Tests used:
[1] = target: CD28 on Jurkat/IL2 reporter cells (human) (UniProt P10747); assay: cell-based or functional assay
[2] = target: PD-L1 on K562/OKT3/PD-L1 artificial antigen presenting cells (UniProt Q9NZQ7); assay: cell-based or functional assay
Sequence of PD-L1 on K562/OKT3/PD-L1 artificial antigen presenting cells (Q9NZQ7 19-290): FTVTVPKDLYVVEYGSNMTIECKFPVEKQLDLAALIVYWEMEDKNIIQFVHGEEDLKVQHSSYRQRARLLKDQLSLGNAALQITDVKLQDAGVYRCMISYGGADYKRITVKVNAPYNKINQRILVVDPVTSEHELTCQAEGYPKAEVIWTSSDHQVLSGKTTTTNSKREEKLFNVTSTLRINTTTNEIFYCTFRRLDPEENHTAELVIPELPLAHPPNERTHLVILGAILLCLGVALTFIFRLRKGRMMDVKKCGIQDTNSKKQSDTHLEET

Substance | Fold Increase over WT CD80-IgV-Fc (RLU, Jurkat/IL2 + K562/OKT3/PD-L1 reporter assay, 50 nM) [1] [fold] | Relative Luciferase Units (RLU), Jurkat/IL2 + K562/OKT3/PD-L1 reporter assay, CD80-Fc Conc 50 nM [1] [RLU] | Fold Increase over WT CD80-IgV-Fc (RLU, Jurkat/IL2 + K562/OKT3/PD-L1 reporter assay, 50 nM) [2] [fold] | Relative Luciferase Units (RLU), Jurkat/IL2 + K562/OKT3/PD-L1 reporter assay, CD80-Fc Conc 50 nM [2] [RLU]
CD80 V22D/E35D/M47L/L85Q IgV-Fc (inert) (Fc fusion) | 5.5 | 1140 | 5.5 | 1140
CD80 A26E/E35D/M47L/A71G IgV-Fc (inert) (Fc fusion) | 8.5 | 1750 | 8.5 | 1750
CD80 E35D/T41S/M43I/A71G/D90G IgV-Fc (inert) (Fc fusion) | 5.4 | 1120 | 5.4 | 1120
CD80 V22L/Q27H/E35D/M47I/A71G IgV-Fc (inert) (Fc fusion) | 5.5 | 1120 | 5.5 | 1120
CD80 E35D/M38T/D46E/M47V/N48S IgV-Fc (inert) (Fc fusion) | 6.4 | 1320 | 6.4 | 1320
CD80 Q27H/E35D/D46V/M47L/A71G IgV-Fc (inert) (Fc fusion) | 4.7 | 978 | 4.7 | 978
CD80 E35D/T41S/M47V/L97Q IgV-Fc (inert) (Fc fusion) | 2.9 | 594 | 2.9 | 594
CD80 V22D/E35D/M47L/L70M/L97Q IgV-Fc (inert) (Fc fusion) | 7.5 | 1540 | 7.5 | 1540
CD80 E35D/T41S/M43V/M47I/L70M/A71G IgV-Fc (inert) (Fc fusion) | 8.1 | 1670 | 8.1 | 1670
CD80 H18Y/A26E/E35D/M47L/L85Q/D90G IgV-Fc (inert) (Fc fusion) | 7.3 | 1510 | 7.3 | 1510
